Reference: PMC4889325

Biological target: human haemoglobin (human)
Assay: ITC; MicroCal iTC200; 250 μM TcHpHbR titrated into 18 μM Hb, 20 injections of 2 μl; 20 mM HEPES pH 7.5, 150 mM NaCl, 25°C

“T. congolense haptoglobin-haemoglobin receptor (TcHpHbR), recombinant, as used in gel filtration and ITC” showed a Kd of 3 nM and a stoichiometry N (receptors per Hb tetramer) of 2.
